From US20040014131A1, “Assay methods” (Pfizer Inc., priority 2002, published 2004)
[ ]: non-standard residue; d: D form. QSY7 = QSY-7 (maleimide) on Cys; βAla = NCCC(=O)O

Assays:
mouse SEP = target: T1, mouse SEP (Mus musculus, UniProt Q9JLI3); details: cited from earlier work
T1 sequence (Q9JLI3 1-765): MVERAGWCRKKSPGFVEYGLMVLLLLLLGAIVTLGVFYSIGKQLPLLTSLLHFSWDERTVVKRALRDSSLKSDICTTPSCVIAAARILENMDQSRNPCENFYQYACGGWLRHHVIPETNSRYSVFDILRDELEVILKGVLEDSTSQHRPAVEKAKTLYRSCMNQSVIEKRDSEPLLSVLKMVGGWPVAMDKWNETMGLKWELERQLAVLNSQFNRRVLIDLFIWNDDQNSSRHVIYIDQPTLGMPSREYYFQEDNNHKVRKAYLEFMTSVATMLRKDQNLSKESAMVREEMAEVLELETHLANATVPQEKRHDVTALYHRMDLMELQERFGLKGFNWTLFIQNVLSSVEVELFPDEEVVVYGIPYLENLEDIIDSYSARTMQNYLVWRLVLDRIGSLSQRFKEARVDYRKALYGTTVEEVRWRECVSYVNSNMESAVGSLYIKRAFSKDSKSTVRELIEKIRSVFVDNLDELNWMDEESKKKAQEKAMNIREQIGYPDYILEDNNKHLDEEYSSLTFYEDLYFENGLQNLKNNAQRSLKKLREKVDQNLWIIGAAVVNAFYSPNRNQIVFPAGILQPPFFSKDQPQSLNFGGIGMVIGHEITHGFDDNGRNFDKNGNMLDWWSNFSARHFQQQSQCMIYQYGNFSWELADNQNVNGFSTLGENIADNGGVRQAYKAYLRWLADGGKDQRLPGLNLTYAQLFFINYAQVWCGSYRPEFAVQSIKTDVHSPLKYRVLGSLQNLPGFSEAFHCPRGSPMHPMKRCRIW

human SEP = target: T2, human SEP (Homo sapiens, UniProt Q495T6); experiment: human SEP activity, sensitivity to inhibitors; type: biochemical
T2 construct: The full length human SEP clone was termed MSSE82; made in house; host or cells: CHO cells transfected with plasmid MSSE82; dialysed culture medium used as enzyme
T2 sequence (Q495T6 75-779 limits assumed): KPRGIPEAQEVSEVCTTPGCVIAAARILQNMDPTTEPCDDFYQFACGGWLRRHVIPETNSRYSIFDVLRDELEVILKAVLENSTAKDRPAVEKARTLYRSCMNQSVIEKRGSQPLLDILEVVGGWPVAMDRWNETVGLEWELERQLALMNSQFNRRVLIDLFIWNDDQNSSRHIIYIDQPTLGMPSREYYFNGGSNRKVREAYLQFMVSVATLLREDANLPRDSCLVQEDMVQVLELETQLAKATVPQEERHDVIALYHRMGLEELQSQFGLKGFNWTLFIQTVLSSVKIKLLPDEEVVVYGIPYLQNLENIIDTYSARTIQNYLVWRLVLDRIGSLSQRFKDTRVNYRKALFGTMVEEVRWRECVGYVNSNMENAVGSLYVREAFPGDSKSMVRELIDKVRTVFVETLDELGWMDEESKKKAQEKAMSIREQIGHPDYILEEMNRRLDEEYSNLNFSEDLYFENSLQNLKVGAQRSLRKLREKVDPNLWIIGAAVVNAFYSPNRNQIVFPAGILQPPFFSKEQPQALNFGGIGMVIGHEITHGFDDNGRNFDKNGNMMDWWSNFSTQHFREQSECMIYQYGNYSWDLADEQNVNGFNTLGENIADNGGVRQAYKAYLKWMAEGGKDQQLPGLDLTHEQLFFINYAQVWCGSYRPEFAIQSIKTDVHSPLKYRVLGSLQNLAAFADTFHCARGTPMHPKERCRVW
Experimental: The enzymatic (proteolytic) activity of human SEP protein can be measured in an assay involving, for example, mixing a sample of the human SEP enzyme with a substrate peptide in a buffer solution (for example 50 mM HEPES; pH 7.4), incubating the mixture for a period of time (such as 1-3 hours) enough for human SEP to act to cleave a measurable portion of the peptide substrate to a product at a temperature suitable for SEP activity (typically 30-37° C.).
The effect of candidate human SEP inhibitor compounds or control test compounds such as phosphoramidon and thiorphan that may alter the activity of human SEP can be measured in this type of assay by including them in the initial mixture at a range of suitable test concentrations, typically 0.1 nM to 50 μM.
To determine the IC50 of SEP inhibitors (SEPi; for example, phosphoramidon), multiple SEP assays are performed as described above with a range of test concentrations of inhibitor included in the 50 μl of DMSO solution (made by appropriate dilution of a 10 mM 100% DMSO stock of inhibitor with 4% DMSO/50 mM HEPES pH7.4.). Using a suitable standard graph fitting computer program, a sigmoidal dose response curve is fitted to a plot of log inhibitor concentration versus MaxV (or % inhibition or % activity). The IC50 is calculated as the inhibitor concentration causing 50% maximal inhibition. […]

[1] = target: T3, Recombinant human NEP enzyme (Homo sapiens, UniProt P08473); experiment: NEP FRET assay (384 well, homogeneous); type: biochemical; details: steady state kinetics of NEP enzyme with the peptide substrate
T3 construct: made in house; host or cells: Pichia pastoris
T3 sequence (P08473 whole entry): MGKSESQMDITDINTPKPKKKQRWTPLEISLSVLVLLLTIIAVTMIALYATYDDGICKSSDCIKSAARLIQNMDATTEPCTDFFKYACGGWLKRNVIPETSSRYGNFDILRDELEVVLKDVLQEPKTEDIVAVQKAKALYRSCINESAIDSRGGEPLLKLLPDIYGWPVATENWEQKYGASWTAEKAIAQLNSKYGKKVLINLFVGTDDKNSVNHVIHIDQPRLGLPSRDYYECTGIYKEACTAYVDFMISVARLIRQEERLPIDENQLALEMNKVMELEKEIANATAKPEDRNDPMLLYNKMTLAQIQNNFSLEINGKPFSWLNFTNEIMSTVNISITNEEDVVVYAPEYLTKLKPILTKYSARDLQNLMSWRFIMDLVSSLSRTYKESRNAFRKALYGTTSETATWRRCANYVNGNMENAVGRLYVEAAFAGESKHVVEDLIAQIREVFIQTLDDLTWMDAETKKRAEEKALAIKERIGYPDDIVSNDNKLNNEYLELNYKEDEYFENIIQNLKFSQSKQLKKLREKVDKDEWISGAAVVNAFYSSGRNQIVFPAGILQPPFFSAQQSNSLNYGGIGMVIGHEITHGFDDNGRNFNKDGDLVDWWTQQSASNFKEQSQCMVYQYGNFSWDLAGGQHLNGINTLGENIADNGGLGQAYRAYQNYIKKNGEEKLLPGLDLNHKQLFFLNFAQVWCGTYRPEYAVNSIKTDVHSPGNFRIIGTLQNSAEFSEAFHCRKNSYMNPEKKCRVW
Experimental: All assays were conducted in 384 well black, flat bottom plates, purchased from Matrix Technologies Ltd. (Cheshire, UK).
Compounds for screening were supplied as singles at 40 μM in 1% DMSO to achieve a final screening concentration of 10 μM.
The peptide substrate (Rhodamine green-Gly-Gly-dPhe-Leu-Arg-Arg-Val-Cys(QSY™7)-βAla-NH2) (SEQ ID NO: 8) was made as described above and labelled with fluorophores purchased from Molecular Probes, Inc. All other reagents were purchased from Sigma/Aldrich (Poole, Dorset, UK).
Recombinant human NEP enzyme was expressed using Pichia pastoris and purified to homogeneity using a three-step purification procedure.
All assays were performed in 50 mM Hepes buffer pH 8, 0.1% v/v pluronic-F127 and 1% v/v protease inhibitor cocktail (antipain, aprotinin, leupeptin, pepstatin A). 10 μl of compound in 1% DMSO was added to each well, followed by 20 μl of recombinant enzyme (10 nM final concentration). The reaction was initiated by the addition of 10 μl of substrate (1 μM final concentration) and plates were incubated at 25° C. for one hour. Termination of the reaction was achieved by the addition of 20 μl of Stop (excess of a known inhibitor) to a concentration of 10 μM in the well. Plates were counted using Tecan Ultra (485 nm excitation, 535 nm emission; Tecan Austria, Salzburg, Austria). […]

[2] = target: T4, Rhodamine green-Gly-Gly-dPhe-Leu-Arg-Arg-Val-Cys(QSY7)-betaAla-NH2
T4 chain: GGFLRRVCA

Row | Molecule | sensitivity of mouse SEP to inhibitor (mouse SEP) | sensitivity of human SEP to inhibitor (human SEP) | cleavage of the FRET substrate, monitored by fluorescence [2] | further results
1 | CC(C)C[C@H](NP(=O)(O)O[C@@H]1O[C@@H](C)[C@H](O)[C@@H](O)[C@H]1O)C(=O)N[C@@H](Cc1c[nH]c2ccccc12)C(=O)O [phosphoramidon] | sensitive | sensitive | – | –
2 | O=C(O)CNC(=O)C(CS)Cc1ccccc1 (centres unmarked) [thiorphan] | sensitive | sensitive | – | –
3 | Rhodamine green-Gly-Gly-dPhe-Leu-Arg-Arg-Val-Cys(QSY™7)-βAla-NH2 ({Rhodamine green}-GG[dF]LRRVC(QSY7)[βAla]-NH2) [CP4] | – | – | – | Kcat [1]: 0.083 s⁻¹; Km ([1]; 50 mM Hepes pH 8, 25° C.): 8 µM
4 | human soluble secreted endopeptidase (human SEP), recombinant (protein) RKPRGIPEAQEVSEVCTTPGCVIAAARILQNMDPTTEPCDDFYQFACGGWLRRHVIPETNSRYSIFDVLRDELEVILKAVLENSTAKDRPAVEKARTLYRSCMNQSVIEKRGSQPLLDILEVVGGWPVAMDRWNETVGLEWELERQLALMNSQFNRRVLIDLFIWNDDQNSSRHIIYIDQPTLGMPSREYYFNGGSNRKVREAYLQFMVSVATLLREDANLPRDSCLVQEDMVQVLELETQLAKATVPQEERHDVIALYHRMGLEELQSQFGLKGFNWTLFIQTVLSSVKIKLLPDEEVVVYGIPYLQNLENIIDTYSARTIQNYLVWRLVLDRIGSLSQRFKDTRVNYRKALFGTMVEEVRWRECVGYVNSNMENAVGSLYVREAFPGDSKSMVRELIDKVRTVFVETLDELGWMDEESKKKAQEKAMSIREQIGHPDYILEEMNRRLDEEYSNLNFSEDLYFENSLQNLKVGAQRSLRKLREKVDPNLWIIGAAVVNAFYSPNRNQIVFPAGILQPPFFSKEQPQALNFGGIGMVIGHEITHGFDDNGRNFDKNGNMMDWWSNFSTQHFREQSECMIYQYGNYSWDLADEQNVNGFNTLGENIADNGGVRQAYKAYLKWMAEGGKDQQLPGLDLTHEQLFFINYAQVWCGSYRPEFAIQSIKTDVHSPLKYRVLGSLQNLAAFADTFHCARGTPMHPKERCRVW | – | – | CP4 is cleaved by endopeptidases NEP or SEP, creating the cleavage product Rhodamine green-Gly-Gly-dPhe-Leu-Arg-Arg-OH | –
5 | Recombinant human NEP enzyme (neutral endopeptidase, neprilysin, EC 3.4.24.11) (protein) DDGICKSSDCIKSAARLIQNMDATTEPCTDFFKYACGGWLKRNVIPETSSRYGNFDILRDELEVVLKDVLQEPKTEDIVAVQKAKALYRSCINESAIDSRGGEPLLKLLPDIYGWPVATENWEQKYGASWTAEKAIAQLNSKYGKKVLINLFVGTDDKNSVNHVIHIDQPRLGLPSRDYYECTGIYKEACTAYVDFMISVARLIRQEERLPIDENQLALEMNKVMELEKEIANATAKPEDRNDPMLLYNKMTLAQIQNNFSLEINGKPFSWLNFTNEIMSTVNISITNEEDVVVYAPEYLTKLKPILTKYSARDLQNLMSWRFIMDLVSSLSRTYKESRNAFRKALYGTTSETATWRRCANYVNGNMENAVGRLYVEAAFAGESKHVVEDLIAQIREVFIQTLDDLTWMDAETKKRAEEKALAIKERIGYPDDIVSNDNKLNNEYLELNYKEDEYFENIIQNLKFSQSKQLKKLREKVDKDEWISGAAVVNAFYSSGRNQIVFPAGILQPPFFSAQQSNSLNYGGIGMVIGHEITHGFDDNGRNFNKDGDLVDWWTQQSASNFKEQSQCMVYQYGNFSWDLAGGQHLNGINTLGENIADNGGLGQAYRAYQNYIKKNGEEKLLPGLDLNHKQLFFLNFAQVWCGTYRPEYAVNSIKTDVHSPGNFRIIGTLQNSAEFSEAFHCRKNSYMNPEKKCRVW | – | – | CP4 is cleaved by endopeptidases NEP or SEP, creating the cleavage product Rhodamine green-Gly-Gly-dPhe-Leu-Arg-Arg-OH | Kcat [2]: 0.083 s⁻¹; Kcat/Km [2]: 10,500 M^-1 S^-1; Km [2]: 8 µM
